Test results taken from US20180305460A1 (Teva, published 2018).
Values belong to the binder of their own block, whether it stands above or below them.

What was measured:
[1] = biological target: T1, interferon-alpha/β receptor (IFNAR) (human, UniProt P17181); experiment: cell-based or functional assay
T1 sequence (receptor (subunits not named in the filing), looked up): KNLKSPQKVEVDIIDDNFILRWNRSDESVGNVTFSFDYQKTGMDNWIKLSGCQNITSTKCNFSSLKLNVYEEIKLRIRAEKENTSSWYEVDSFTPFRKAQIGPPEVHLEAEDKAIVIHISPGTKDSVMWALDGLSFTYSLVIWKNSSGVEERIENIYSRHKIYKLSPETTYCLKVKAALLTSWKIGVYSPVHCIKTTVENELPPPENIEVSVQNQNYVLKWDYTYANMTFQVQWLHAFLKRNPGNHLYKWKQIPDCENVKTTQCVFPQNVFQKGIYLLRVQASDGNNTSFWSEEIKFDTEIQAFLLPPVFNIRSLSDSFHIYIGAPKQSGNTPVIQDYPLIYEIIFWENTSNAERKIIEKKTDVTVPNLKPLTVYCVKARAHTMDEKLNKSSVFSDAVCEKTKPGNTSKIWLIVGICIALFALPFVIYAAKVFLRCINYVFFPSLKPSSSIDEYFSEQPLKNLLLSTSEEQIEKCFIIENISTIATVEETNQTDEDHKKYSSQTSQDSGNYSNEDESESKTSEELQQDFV

Human CD38 [2] = biological target: T2, Human CD38 (human, UniProt P28907 43-300); experiment: SPR (Biacore), the experiment for all other antibodies of Table 7
Human CD38 [3] = biological target: T2, Human CD38; experiment: SPR (Biacore), the separate experiment in which X02.107 was evaluated
[4] = biological target: Human CD38 on CD38-positive myeloma cell lines ARP-1 and H929 (human, UniProt P28907 43-300); experiment: flow cytometry on ARP-1 cells, purified protein
Human CD38 [5] = biological target: T2, Human CD38; experiment: SPR (Biacore), antibody from supernatant captured on Protein A, human CD38 injected, 1:1 fit; separate experiment in which X02.1 gave 2.7 × 10^-8
[6] = biological target: T3, Human CD38 on CD38-positive myeloma cells (ARP-1, H929) (human, UniProt P28907 43-300); experiment: flow cytometry, ARP-1 cells (CD38-positive)
T3 construct: Endogenous CD38 on the human myeloma cell lines ARP-1 and H929, used in flow cytometry; also called NCI-H929

Human CD38 [7] = biological target: T2, Human CD38; experiment: SPR (Biacore), antibody from supernatant captured on Protein A, human CD38 injected, 1:1 fit
[8] = biological target: Human CD38 (soluble analyte in the SPR assay) (human, UniProt P28907 43-300); experiment: SPR (Biacore), antibody captured on Protein A from supernatant, CD38 injected; weakest KD among the separate SPR experiments

EC50; HEK-Blue IFN-alpha/β SEAP reporter (A630) on CD38-negative cells, the unit comes from the x axis 'IFN pM' [1]: 667 pM
B1: A02.6 (wt. IFN) (antibody)
chain 1: QLQLQESGPGLVKPSETLSLTCTVSGGSISSSSYYWSWIRQHPGKGLEWIGYIYYSGSTNYNPSLKSRVTISVDTSKNQFSLKLSSVTAADTAVYYCARVGGAGGWPMDVWGQGTTVTVSS
chain 2: QAVLTQPASLSASPGESARLTCTLPSDINVRYYNIYWYQQKPGSPPRYLLYYYSDSHKGQGSGVPSRFSGSKDVSTNSGILLISGLQSEDIATYYCMTWSSNGSGVFGGGTQLTVLG

Kd (Human CD38 [5]): 24.7 nM
B4: X02.107 (antibody)
heavy: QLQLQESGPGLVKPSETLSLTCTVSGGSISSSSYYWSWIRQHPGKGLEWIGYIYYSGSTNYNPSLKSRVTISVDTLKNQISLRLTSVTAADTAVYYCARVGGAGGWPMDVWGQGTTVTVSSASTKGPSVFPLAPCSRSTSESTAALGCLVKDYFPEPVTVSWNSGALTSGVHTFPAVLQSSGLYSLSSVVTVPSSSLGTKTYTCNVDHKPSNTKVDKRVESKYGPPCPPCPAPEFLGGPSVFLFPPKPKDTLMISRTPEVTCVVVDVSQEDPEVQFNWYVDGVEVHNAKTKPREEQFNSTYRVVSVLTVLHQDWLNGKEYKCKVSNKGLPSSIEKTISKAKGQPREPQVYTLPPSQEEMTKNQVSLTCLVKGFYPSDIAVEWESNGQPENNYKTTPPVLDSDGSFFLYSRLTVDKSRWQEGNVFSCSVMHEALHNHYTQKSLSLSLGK
VL: QAVLTQPASLSASPGESARLTCTLPSDINVRYYNIYWYQQKPGSPPRYLLYYYSDSHKGQGSGVPSRFSGSKDVSTNSGILLISGLQSEDIATYYCMTWSSNGSGVFGGGTQLTVLG
notes: IgG4 S228P with the X02.1 VH; VL E83I, D85T relative to A02.1

The remaining lines, values behind:

B2: X02.1 (antibody, human IgG4 S228P)
heavy: not shown
VL: QAVLTQPASLSASPGESARLTCTLPSDINVRYYNIYWYQQKPGSPPRYLLYYYSDSHKGQGSGVPSRFSGSKDVSTNSGILLISGLQSEDEADYYCMTWSSNGSGVFGGGTQLTVLG
notes: Human IgG4 S228P, not fused to IFN; also called parental antibody X02.1
Kd (Human CD38 [2]): 0.378 nM | Kd (Human CD38 [3]): 27 nM

B3: A02.1 (antibody)
heavy: QLQLQESGPGLVKPSETLSLTCTVSGGSISSSSYYWSWIRQHPGKGLEWIGYIYYSGSTNYNPSLKSRVTISVDTLKNQISLRLTSVTAADTAVYYCARVGGAGGWPMDVWGQGTTVTVSS
light: QAVLTQPASLSASPGESARLTCTLPSDINVRYYNIYWYQQKPGSPPRYLLYYYSDSHKGQGSGVPSRFSGSKDVSTNSGILLISGLQSEDEADYYCMTWSSNGSGVFGGGTQLTVLGQPKAAPSVTLFPPSSEELQANKATLVCLISDFYPGAVTVAWKADSSPVKAGVETTTPSKQSNNKYAASSYLSLTPEQWKSHRSYSCQVTHEGSTVEKTVAPTECS
notes: Anti-CD38 IgG4 fused to attenuated IFN-alpha2b A145D at the heavy chain C-terminus; also called X355/02-HC-L0-IFN-alpha (A145D) IgG4
EC50 [4]: 1.45 µg/mL

B5: X02.69 (antibody, human IgG4 S228P)
heavy: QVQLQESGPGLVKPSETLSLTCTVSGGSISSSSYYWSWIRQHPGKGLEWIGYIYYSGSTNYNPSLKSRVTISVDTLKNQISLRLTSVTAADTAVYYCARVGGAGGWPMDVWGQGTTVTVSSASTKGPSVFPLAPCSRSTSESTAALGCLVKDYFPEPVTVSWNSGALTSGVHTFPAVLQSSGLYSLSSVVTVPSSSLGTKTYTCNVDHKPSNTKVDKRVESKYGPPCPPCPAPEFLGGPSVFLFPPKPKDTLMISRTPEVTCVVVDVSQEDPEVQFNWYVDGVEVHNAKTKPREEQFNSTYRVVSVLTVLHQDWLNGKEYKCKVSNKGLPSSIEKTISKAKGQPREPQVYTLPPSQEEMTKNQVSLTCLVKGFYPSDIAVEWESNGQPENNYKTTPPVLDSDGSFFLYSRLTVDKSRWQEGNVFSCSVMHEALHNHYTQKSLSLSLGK
VL: QAVLTQPASLSASPGESARLTCTLPSDINVRYYNIYWYQQKPGSPPRYLLYYYSDSHKGQGSGVPSRFSGSKDVSTNSGILLISGLQSEDEADYYCMTWSSNGSGVFGGGTQLTVLG
notes: IgG4 S228P; VH Q2V relative to X02.1
EC50 [6]: 16.8 µg/mL | Kd (Human CD38 [7]): 0.0368 nM

B6: X02.1 (antibody, human IgG4 S228P, lambda)
heavy: not shown
light: QAVLTQPASLSASPGESARLTCTLPSDINVRYYNIYWYQQKPGSPPRYLLYYYSDSHKGQGSGVPSRFSGSKDVSTNSGILLISGLQSEDEADYYCMTWSSNGSGVFGGGTQLTVLGQPKAAPSVTLFPPSSEELQANKATLVCLISDFYPGAVTVAWKADSSPVKAGVETTTPSKQSNNKYAASSYLSLTPEQWKSHRSYSCQVTHEGSTVEKTVAPTECS
notes: also called parental antibody X02.1; unfused form of A02.1 (X355/02)
Kd [8]: 0.378 to 27 nM
